Laboratory results reported in the supplement of paper PMC9112550, “Optimization of the antimicrobial peptide Bac7 by deep mutational scanning” (BMC Biology, 2022).

Tested on: Escherichia coli TOP10
Experiment: shrunken log2 fold change of peptide-encoding DNA abundance (4.5 h post-induction vs induction); higher = less antimicrobial activity (less host growth inhibition)
Conditions: time post-induction: 4.5 h; library: site-saturation at positions 5, 18, 19, 20
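Note: peptides expressed intracellularly from a pBAD plasmid library in pooled LB shake-flask culture, induced with 0.3% L-arabinose, DNA abundance read by NGS, three biological replicates, DESeq2 with apeglm shrinkage.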

| Sequence | shrunken log2 fold change |
| --- | --- |
| RRIRTRPPRLPRPRPRPCTVPRP | -0.442 |
| RRIRCRPPRLPRPRPRPMLPPRP | -0.00464 |
| RRIRDRPPRLPRPRPRPLVRPRP | 0.223 |
| RRIRYRPPRLPRPRPRPLDYPRP | -1.11 |
| RRIRYRPPRLPRPRPRPQYQPRP | -0.103 |
| RRIRNRPPRLPRPRPRPTAGPRP | 0.0608 |
| RRIRWRPPRLPRPRPRPHILPRP | -0.358 |
| RRIRFRPPRLPRPRPRPWAFPRP | -0.161 |
| RRIRERPPRLPRPRPRPTFWPRP | -0.0352 |
| RRIRVRPPRLPRPRPRPSTPPRP | -0.0614 |
| RRIRDRPPRLPRPRPRPIDGPRP | 0.0392 |
| RRIRLRPPRLPRPRPRPWPNPRP | -0.0032 |
| RRIRVRPPRLPRPRPRPKIGPRP | -0.0842 |
| RRIRDRPPRLPRPRPRPHFEPRP | 0.163 |
| RRIRHRPPRLPRPRPRPDQRPRP | -0.00114 |
| RRIRERPPRLPRPRPRPIYVPRP | -1.09 |
| RRIRTRPPRLPRPRPRPNHKPRP | -0.443 |
| RRIRCRPPRLPRPRPRPTCFPRP | 0.152 |
| RRIRTRPPRLPRPRPRPRKYPRP | -0.809 |
| RRIRWRPPRLPRPRPRPMVRPRP | 0.0171 |
| RRIRHRPPRLPRPRPRPSQEPRP | -0.27 |
| RRIRGRPPRLPRPRPRPHLMPRP | -0.0148 |
| RRIRYRPPRLPRPRPRPMPSPRP | 0.0101 |
| RRIRSRPPRLPRPRPRPLWGPRP | -0.00343 |
| RRIRNRPPRLPRPRPRPHIVPRP | -0.249 |

| Sequence | shrunken log2 fold change |
| --- | --- |
| RRIRMRPPRLPRPRPRPEISPRP | 0.0502 |
| RRIRQRPPRLPRPRPRPDIQPRP | 0.00127 |
| RRIRRRPPRLPRPRPRPYGKPRP | -0.813 |
| RRIRMRPPRLPRPRPRPPLHPRP | 0.691 |
| RRIRKRPPRLPRPRPRPLEFPRP | 0.124 |
| RRIRRRPPRLPRPRPRPSARPRP | 0.349 |
| RRIRWRPPRLPRPRPRPNDFPRP | -0.0161 |
| RRIRTRPPRLPRPRPRPPPPPRP | 0.862 |
| RRIRARPPRLPRPRPRPMYPPRP | -0.79 |
| RRIRKRPPRLPRPRPRPKFQPRP | 0.343 |
| RRIRSRPPRLPRPRPRPVGAPRP | 0.538 |
| RRIRVRPPRLPRPRPRPPVCPRP | 0.191 |
| RRIRLRPPRLPRPRPRPHYYPRP | -0.438 |
| RRIRFRPPRLPRPRPRPLTVPRP | -0.73 |
| RRIRDRPPRLPRPRPRPNNWPRP | -0.11 |
| RRIRIRPPRLPRPRPRPNDLPRP | -0.16 |
| RRIRKRPPRLPRPRPRPHGKPRP | 0.109 |
| RRIRFRPPRLPRPRPRPHMFPRP | -0.21 |
| RRIRTRPPRLPRPRPRPGSFPRP | 0.00381 |
| RRIRNRPPRLPRPRPRPMTNPRP | 0.454 |
| RRIRLRPPRLPRPRPRPCYQPRP | -0.476 |
| RRIRVRPPRLPRPRPRPDCSPRP | -0.0973 |
| RRIRNRPPRLPRPRPRPCGCPRP | 0.0239 |
| RRIRFRPPRLPRPRPRPHAWPRP | -0.126 |
| RRIRTRPPRLPRPRPRPAQGPRP | 0.228 |

| Sequence | shrunken log2 fold change |
| --- | --- |
| RRIRERPPRLPRPRPRPQAKPRP | 0.162 |
| RRIRSRPPRLPRPRPRPDCPPRP | 0.0922 |
| RRIRPRPPRLPRPRPRPVGYPRP | 0.394 |
| RRIRMRPPRLPRPRPRPIHQPRP | -0.108 |
| RRIRMRPPRLPRPRPRPAPSPRP | 1.28 |
| RRIRRRPPRLPRPRPRPREMPRP | 0.513 |
| RRIRERPPRLPRPRPRPHSEPRP | -0.148 |
| RRIRHRPPRLPRPRPRPMFEPRP | -0.239 |
| RRIRVRPPRLPRPRPRPRCQPRP | 0.0744 |
| RRIRSRPPRLPRPRPRPNDTPRP | -0.437 |
| RRIRDRPPRLPRPRPRPIWRPRP | 0.235 |
| RRIRPRPPRLPRPRPRPLQDPRP | 0.151 |
| RRIRSRPPRLPRPRPRPWAPPRP | 0.0324 |
| RRIRKRPPRLPRPRPRPDWAPRP | -0.0624 |
| RRIRSRPPRLPRPRPRPPWYPRP | -0.321 |
| RRIRIRPPRLPRPRPRPRWNPRP | -0.249 |
| RRIRSRPPRLPRPRPRPTRGPRP | 0.581 |
| RRIRQRPPRLPRPRPRPDYEPRP | 0.0301 |
| RRIRWRPPRLPRPRPRPGCWPRP | 1.09 |
| RRIRWRPPRLPRPRPRPLGLPRP | 0.116 |
| RRIRMRPPRLPRPRPRPMRHPRP | 0.452 |
| RRIRLRPPRLPRPRPRPCLSPRP | 0.00058 |
| RRIRDRPPRLPRPRPRPHYVPRP | -0.0495 |
| RRIRGRPPRLPRPRPRPPNAPRP | 1.35 |
| RRIRTRPPRLPRPRPRPRATPRP | 0.299 |

| Sequence | shrunken log2 fold change |
| --- | --- |
| RRIRARPPRLPRPRPRPPYRPRP | -0.0935 |
| RRIRDRPPRLPRPRPRPGTIPRP | -0.485 |
| RRIRKRPPRLPRPRPRPGLKPRP | 0.377 |
| RRIRHRPPRLPRPRPRPWFLPRP | -0.315 |
| RRIRFRPPRLPRPRPRPMGVPRP | -0.457 |
| RRIRNRPPRLPRPRPRPIGKPRP | -0.0902 |
| RRIRYRPPRLPRPRPRPSAAPRP | -0.222 |
| RRIRWRPPRLPRPRPRPLMQPRP | 0.217 |
| RRIRNRPPRLPRPRPRPEGDPRP | -0.043 |
| RRIRNRPPRLPRPRPRPGEPPRP | 0.033 |
| RRIRHRPPRLPRPRPRPVKNPRP | 0.0467 |
| RRIRSRPPRLPRPRPRPPETPRP | 0.103 |
| RRIRVRPPRLPRPRPRPERTPRP | -0.111 |
| RRIRTRPPRLPRPRPRPCSEPRP | -0.0314 |
| RRIRWRPPRLPRPRPRPCEPPRP | -0.27 |
| RRIRFRPPRLPRPRPRPADSPRP | -0.187 |
| RRIRDRPPRLPRPRPRPAWCPRP | 0.183 |
| RRIRFRPPRLPRPRPRPFKAPRP | -0.11 |
| RRIRIRPPRLPRPRPRPHMNPRP | -0.845 |
| RRIRWRPPRLPRPRPRPAGGPRP | 0.379 |
| RRIRFRPPRLPRPRPRPKQRPRP | 0.384 |
| RRIRNRPPRLPRPRPRPVNDPRP | -0.15 |
| RRIRIRPPRLPRPRPRPMNTPRP | -0.207 |
| RRIRERPPRLPRPRPRPFHYPRP | -0.416 |
| RRIRSRPPRLPRPRPRPFFYPRP | -0.17 |

| Sequence | shrunken log2 fold change |
| --- | --- |
| RRIRDRPPRLPRPRPRPSYQPRP | -0.494 |
| RRIRWRPPRLPRPRPRPDGIPRP | 0.151 |
| RRIRYRPPRLPRPRPRPWVHPRP | -0.701 |
| RRIRGRPPRLPRPRPRPMCEPRP | 2.46 |
| RRIRGRPPRLPRPRPRPPLIPRP | 0.669 |
| RRIRMRPPRLPRPRPRPDPPPRP | 1.23 |
| RRIRGRPPRLPRPRPRPFKPPRP | -0.0354 |
| RRIRARPPRLPRPRPRPDTRPRP | 0.0596 |
| RRIRDRPPRLPRPRPRPDISPRP | 0.0588 |
| RRIRMRPPRLPRPRPRPYLIPRP | -0.463 |
| RRIRQRPPRLPRPRPRPSHMPRP | 0.109 |
| RRIRERPPRLPRPRPRPRDRPRP | 0.0224 |
| RRIRLRPPRLPRPRPRPEGGPRP | 0.0449 |
| RRIRGRPPRLPRPRPRPRTLPRP | 0.477 |
| RRIRNRPPRLPRPRPRPYWIPRP | -1.71 |
| RRIRQRPPRLPRPRPRPFVPPRP | 0.0357 |
| RRIRMRPPRLPRPRPRPCDGPRP | 0.0158 |
| RRIRPRPPRLPRPRPRPYCYPRP | -0.798 |
| RRIRLRPPRLPRPRPRPAGQPRP | -0.0451 |
| RRIRDRPPRLPRPRPRPNYNPRP | -0.865 |
| RRIRCRPPRLPRPRPRPKPYPRP | 0.179 |
| RRIRYRPPRLPRPRPRPKPHPRP | -0.1 |
| RRIRWRPPRLPRPRPRPVPRPRP | 0.549 |
| RRIRSRPPRLPRPRPRPPVFPRP | 0.368 |
| RRIRGRPPRLPRPRPRPTWIPRP | 0.25 |

| Sequence | shrunken log2 fold change |
| --- | --- |
| RRIRPRPPRLPRPRPRPWLEPRP | -0.0732 |
| RRIRSRPPRLPRPRPRPSSPPRP | -0.561 |
| RRIRERPPRLPRPRPRPCIGPRP | -0.479 |
| RRIRLRPPRLPRPRPRPGVVPRP | 0.27 |
| RRIRSRPPRLPRPRPRPVRPPRP | 0.742 |
| RRIRVRPPRLPRPRPRPRDPPRP | 0.617 |
| RRIRTRPPRLPRPRPRPRTGPRP | 0.312 |
| RRIRWRPPRLPRPRPRPYRRPRP | -0.0183 |
| RRIRGRPPRLPRPRPRPITYPRP | 0.265 |
| RRIRRRPPRLPRPRPRPIWYPRP | 0.00744 |
| RRIRNRPPRLPRPRPRPMWYPRP | -0.0267 |
| RRIRIRPPRLPRPRPRPTTQPRP | 0.102 |
| RRIRVRPPRLPRPRPRPQEAPRP | -0.0448 |
| RRIRKRPPRLPRPRPRPPNVPRP | 0.197 |
| RRIRLRPPRLPRPRPRPPRRPRP | 0.746 |
| RRIRMRPPRLPRPRPRPWDLPRP | 0.36 |
| RRIRWRPPRLPRPRPRPVSNPRP | 0.0778 |
| RRIRNRPPRLPRPRPRPNHMPRP | -0.16 |
| RRIRNRPPRLPRPRPRPGRGPRP | 0.918 |
| RRIRHRPPRLPRPRPRPRGNPRP | 0.174 |
| RRIRFRPPRLPRPRPRPPLGPRP | 1.33 |
| RRIRWRPPRLPRPRPRPHHDPRP | -0.708 |
| RRIRERPPRLPRPRPRPECGPRP | 0.612 |
| RRIRYRPPRLPRPRPRPCETPRP | 0.00591 |
| RRIRYRPPRLPRPRPRPDRNPRP | -0.018 |
